# From the DeepSol protein solubility set
# Experiment: soluble on expression in E. coli; label from the status in PepcDB or PDB records
row,Sequence,soluble on expression in E. coli
1,MGSDKIHHHHHHMNFVTTIGLEVHVELKTNSKIFSPSPVQFGSEPNANTNVIDWGYPGVLPTPNKGVVEAGIKAATALHAEIEHHTYFDRKNYFYPDNPKAYQITQHEKPIAHDGWIEIEVDGKKKKIGIEEMHIEEDAGKNTHENDYSYVDLNRQGTPLIEIVSKPDIASPEEAYAYCEALRQRIQFTGVSDVKMEEGSMRVDVNISIRPAGSDKYGVKTEMKNLNSFNYVRKSLEYEEQRQQQVLMAGGKIQQETRRFDETTGQTILMRVKEGSDDYRYFPEPDIPAVDIDDDWIASVKKTIPEMPGSRRERYINEFGLTAYDAGVLTQTKEMSDFFDATVAEGADPKLASNYLQGDVNAYLNEHKVDLLATDLTPTNLAGMIKMISDETISSKIAKKVFKAIMAGSEPVQWVNDKGLVQLSDPAKLQPIVDDVLDNNQQSIDDFKNGKDRAVGFLVGQIMKKTRGQANPKVVNQLLMTSLKAR,not soluble
2,MGSDKIHHHHHHMNIIICDDRIDDRKNLSDLLSDYGEKKNYEFTITEYDSGEQLCEEQSALEACQLLFLDINMQGMDGLKTAMRIKEKYPKLPVVLVTAYMNYALDGYKVKASRFLLKDNLADTIEECMDDLIAEINKNRRILEFRFVEGTIKLYADDIIYIETELHKNVFYTEKGTFQIYKKLDELENEFKDMGFVRAHLSFLVNMRYITKISGYVMTLTTGKKIPVPKARYAQVKREYMLYKGEE,not soluble
3,MGSDKIHHHHHHMNILIKIRELTNLTNSEKELANYIVVNPKKTLQFKPKELAQAAFVSAATIYRLINKLGLNGIGELKIEIASSLRETNEEKEINYDYPILESDTPYQIMTNLNQIYKGTIDETLNNADPEELVKIGEKLIKAKTIDVYAASANLFFAQNFKFQMQEIGVLVNVPEEDYIQSLSAANSDKDHIAIVVSYGGRSRTLQRVVKILSENDVDIILITSMQANPLVEFATHKIYMASAENHYNKVSSFSTRQSLLSIFDTLYSVYFNHDYEKNIQYKTTNYQKMNSELE,not soluble
4,MGSDKIHHHHHHMNIPIKTLQCFLTLVETENFTRAAQKCFITQPTLSKIIQRLEESLGETLLIRNNQKVELTQAGQLFEHSAREILGQWHRLQEDMSNLSGLKSGRLRLGVCPMMSSLIIGLLTSYRKRYPGVELQMYEYGGFGCEQALLNNSLDIAFTALPTTHETELINQPLTKYPLLACLPEAHPLAAKSYLSWQDFEPYPFILYNEDFSLAKLINRLSRKAGVQLNIAFRSGQWDFLATMVEADMGLAILPEPICQKLSNSKLVFRPMQPALTWDLALIWRQNLPLTPAANALLELSKQKA,not soluble
5,MGSDKIHHHHHHMNITIATLGELLVEFLAKKENQGFSSPGEFWGPYPSGAPAIFADQVAKLGFRSLLFSCVGNDAFGVMNITRLSRDGVNVQGISVLPNATTGSAFVSYRSQAQRDFIFNMPDSACGLLSADHLDETLLRQYRHFHIMGSSLFSFRLIDAVRKAISIVKENGGTISFDPNIRKEMLKIREMSQAFEYILDYTDFFLPSDGELDYFGLSKSRDEEKIVARLHKRGIAHVIIKRGARGASYYSKDEQHHVAGYPVKVVDPTGAGDCFGATFVSLFLAGYSVPDALAHANAAGSLAISARGPMEGTSTLAQIKELMRQQN,not soluble
6,MGSDKIHHHHHHMNIVTLISWDFKRNNESFQRAIINGYDYWSRILDDHGVEKYVILLTCNRVELYYRGDPFDVQEKGYNIISDDMAINHLFHVAAGLDSMSIGENEVLKQVKQAYEKSSSMGKSDKFLSLIFQRAISVGKLVRSKTGIGKGKVSIPSIVYDIVRKNGGNKILLVGNGMLASEIAPYFSYPQYKVTVAGRNIDHVRAFAEKYEYEYVLINDIDSLIKNNDVIITATSSKTPIVEERSLMPGKLFIDLGNPPNIERGNNVITLDEIYEISKKNEMLREEKINQAEILIENEMKATMNKIKDLMIDDIFSQFYRFASVVQTMEIQKFRKMHPEVNENDLEALAHSIINKILNVPVTTLKAVSRSQGNSDFNRLFESFSSNFNDIVSAALQSYEGLRDTQSLRDRTRQLLQKS,not soluble
7,MGSDKIHHHHHHMNKGVPLKTRAEVNAFNGSKMLKVIGLDEFVSNGICDNRHCLLLPNYNPNQRELLSLDWGAVAIQCGGIPSNLTIPVISKLEHPEVISTGDVIVLNENRVDILYRRKSTANLLFVTERCNHQCIMCSQPPKVLDDGWHFEECHQLLELIDRDIPVLGISGGEPTLQRDGFLKLLEHAKKALPSTQLHILTNGSAFEEYLYVEQIIQLGHQQIVWGIPIYGSTPQQHDYHTQVLGSFNKTMHGLYNLGHVGAQIELRVVLTRPIIENIVELSEFIARNLPFVSTVALMGLEPTGFARTNYEAVWCDLNDYQEELLEGTHVLLSSGLDTVLYNIPRCHVPKSLRSIAVQSISDWKNSTRKECEYCEEQNLCCGFFKSHTQRFSEQNVKPIQLERRSENVVRT,not soluble
8,MGSDKIHHHHHHMNKTCERTSGDCTGESKARAASDRVTPCFTPGTLIATPRGERLVENLQVGDRVITRDNGIQEIRWFGHNAMGPQDLSHASHLQPILIRQGALGNGLPERDMMVSPNHRVLVANDKTALYFEDREVLVAAKHLTGLTGIDAIVTTAVTYIHFMFNQHEVVLSDGAWTESFQPVDQSLRGLDNAQRNEIFELFPELRTKEGQKAYPSARRELKEREARMLLH,not soluble
9,MGSDKIHHHHHHMNLDHLRYFVALSRTENYTQTAKLLHITQPSLTKAIHSLEAELNIDLFQKAGRSVTLTPAGKVFASDVESALLLLDKSVTNIKRFDQQKAPIRIAALRTLSIKWLPDIAQRFLQLSPHAAVQFQFNTDTGLSPDILNGLRNNKYDVAFCSKMDHFSDIEFFPVAEQTMVCITPTTHPLANRSSINLAETLAYPQITFSQRSGLHPIMQKLFNDCGGQPISAYAVEEDQAIAGLVASGFGIAVVPNMSILQTMPVKIIPLSFPTWQRILYMGTLKHRTPQPAVEEFITFVRDQSKTLSVNNI,not soluble
10,MGSDKIHHHHHHMNLKTSIENNVHIRAVAAAADELGLETYIVGGYVRDLIMDRDNKDIDFVCLGSGIELAQKVAANMGEHVQVHIFKTFGTAMINAGDTELEFVGARKESYDFNSRKPTVESGTLEDDQLRRDFTINALAICLNKARFGELVDPFDGVSDIKRKIIKTPQDALLTFSDDPLRMIRAVRFATQLNFDIEAATFQAIATNKDRLSIVSMERISQELNKIISAPVPSYGFKLLYISGVLKDIFPEFVALHGVESIDNKSHKDNFYHTLQVLDNVAKVSDDLWLRWAAILHDIAKPLTKRFVERIGWTFHGHEDKGARMVPAIFRKLRLPLNEKMDMVAKLVRLHLRPISLVKDEVTDSAVRRLMFEAGEHFSDLMILCRADVTSKNNNKVKRYLENFDKVERKVIEVEEKDQQRNFQPVVSGEDIMKTFDIKPGKVIGDIKADLIEAILEGDVQNEYEILFPFMINLAEKKYGLVKPETH,not soluble
11,MGSDKIHHHHHHMNLRQLKYFLATAELGQVSRAASELSISQSSVTTAIRELEQSMGTTLFNRTAHGMDLTPTGRDLMSAARDVMEKVQIAQDIGQNHSDVTGTINIAATYTVCGYFLPYHLDRLSHRFPNLTINISELNRESIEEGLISNRFDVAVILTSNTSNPELATQTLMRSHRRLWVPQNHPLAGREFASFEDVAAQDYIMLTVDEAANTSMKYWGPTGLMPRVRMRTSSTEAVRSMVANGLGVTILSDMVYRPWSLEGRRISTVVMDREIPSMDVGLAWRRNQEMPNAARHFVDYFRNAYLSPQMAHTAWRG,not soluble
12,MGSDKIHHHHHHMNNKEIFEELATLARQPAIWFAARSFYGHGGNQRPDNSRRLLRVLAETDNNLTAGAIADILAIRPASVTQIIKKLENDEYIQRVRDESDARVVRVKITSKGRKQLELLEDKQSDFQTELFDVFDDDERQRFGESLRKLNEHVMSDEYLDNMRSKMDKHMRFGFDHFVNVSNARKFHENQTGYLKKMRQHQQQSPFNDEDNEGI,not soluble
13,MGSDKIHHHHHHMNNLPLLDNNWNTDLYEDKHAFVWQYGENLLKVLNPKLGESILDLGCGTGQLTEKIAQAGAEVTGIDRASSMIETARQNYPHLRFDVADARDFQVLKPLDAVFSNAVLHWIKEADAAIASIHQALKPGGRFVAEFGGKGNIQAIVTALYSALEAIAISPQALNPWYFPSIGEYATLLEQQGFDVTYATLFARPTPLTEGEAGMANWLEMFADVFLAGLSADQKIQIIRTVEEHLLPTLYQQGNWTADYRRIRIVAIKL,not soluble
